The target in assay [1] is T1, bovine serum albumin (BSA) (bovine, UniProt P02769 25-607).
T1 construct: Negative control / background protein in the phage ELISA
Description: phage ELISA, scFv displayed on M13 phage, BSA negative control, duplicate 1. How it is done:
(§1) A phage-based ELISA was performed as a semi-quantitative approach to initially validate scFv binding to ADAM10. ADAM10 was adsorbed to ELISA plates and purified phage displaying each of the scFv clones was tested for a binding signal compared to a negative control bovine serum albumin (BSA) protein.
(§2) Similar to the phage display screening methodology, ADAM10 was adsorbed to NUNC MaxiSorp Immunoplates and subsequently incubated with ˜10¹² purified phage displaying an scFv clone. An anti-phage-horseradish peroxidase secondary antibody was then used to generate binding signals for each clone in duplicate, which was measured by colour development at an optical density of 450 nm (O.D. 450 nm) using a tetramethylbenzidine substrate (ThermoScientific, #34028).

In assay [2] the target is T2, recombinant human ADAM10 (Biomatik, #RPU140010) (human, UniProt O14672 214-672, limits assumed).
T2 construct: The source and catalogue number are printed for the phage display selections only; also called purified human ADAM10; Disintegrin and metalloproteinase domain-containing protein 10
T2 sequence (looked up): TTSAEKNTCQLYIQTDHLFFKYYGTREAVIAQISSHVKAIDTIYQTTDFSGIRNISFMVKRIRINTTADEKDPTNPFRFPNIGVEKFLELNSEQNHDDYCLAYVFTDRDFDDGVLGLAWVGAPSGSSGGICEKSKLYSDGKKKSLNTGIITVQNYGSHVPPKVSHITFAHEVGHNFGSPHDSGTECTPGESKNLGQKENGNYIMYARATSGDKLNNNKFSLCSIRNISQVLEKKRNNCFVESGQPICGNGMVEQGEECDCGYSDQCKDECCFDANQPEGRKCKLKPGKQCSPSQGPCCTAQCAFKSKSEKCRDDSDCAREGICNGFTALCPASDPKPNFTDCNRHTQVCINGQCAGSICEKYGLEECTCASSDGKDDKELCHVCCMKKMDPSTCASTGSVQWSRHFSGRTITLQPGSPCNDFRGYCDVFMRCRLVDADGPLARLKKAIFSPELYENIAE
Description: BLI (Octet RED384), unlabeled scFv coupled to AR2G biosensors, ADAM10 at 500 and 166 nM, global fit. The procedure: BLI sensorgrams for scFv-B2 (A), scFv-B7 (B), and scFv-B9 (C) show real-time binding curves in nanometers of optical thickness versus time (sec). […] A global best fit (solid red line) for each curve was calculated by ForteBio Data Anaylsis 7.1 software and used to determine the kinetic parameters in Table 5.
(§3) Biolayer interferometry was performed with an Octet RED384 instrument (ForteBio). The initial kinetics with unlabeled scFv was performed through coupling to AR2G biosensors per manufacturer instructions (ForteBio). These biosensors were then dipped into ADAM10 (500 nM and 166 nM) to generate the association curves, after which the sensors were moved into buffer alone to generate the corresponding dissociation curves. ForteBio Data Analysis 7.0 software was used for global curve fitting to generate the kinetic data. The kinetic analysis for biotin-conjugated scFvs was performed similarly, except that streptavidin biosensors (ForteBio) were used for immobilization, along with three ADAM10 concentrations (1000 nM, 500 nM, 166 nM). An equal loading (i.e. optical thickness) of the biosensors was performed in both kinetic experiments.
In general terms: BLI is a label-free optical method that tracks binding on a fibre tip over time.

For assay [3], the target named is T1, bovine serum albumin (BSA). Description: phage ELISA, scFv displayed on M13 phage, BSA negative control, duplicate 2. How it is done:
as §1, §2
(In an ELISA, binding on a coated surface is turned into a signal by an enzyme label.)

Assay [4] addresses T2, recombinant human ADAM10 (Biomatik, …). Description: phage ELISA, ADAM10 signal over BSA signal. How it is done: as §1, §2
The target is the same in assay [5]. Description: BLI (Octet RED384), biotin-labeled scFv on streptavidin biosensors, ADAM10 at 1000, 500 and 166 nM, global fit. How it is done:
BLI sensorgrams for biotin-scFv-B2 (A), biotin-scFv-B7 (B), and biotin-scFv-B9 (C) show real-time binding curves in nanometers of optical thickness versus time (sec). […] A global best fit (solid red line) for each curve was calculated by ForteBio Data Anaylsis 7.1 software and used to determine the kinetic parameters in Table 6.
as §3

Assay [6] has the same target. Description: phage ELISA, ADAM10 signal over BSA signal; underrepresentation because OD was above the detectable limit. The procedure:
as §1, §2

As usually defined, the Kd is the concentration at which binding is half-saturated. The koff is the first-order rate constant of dissociation. Broadly, the kon is a measure of how fast the partners come together.

T1 sequence (P02769 25-607 limits assumed): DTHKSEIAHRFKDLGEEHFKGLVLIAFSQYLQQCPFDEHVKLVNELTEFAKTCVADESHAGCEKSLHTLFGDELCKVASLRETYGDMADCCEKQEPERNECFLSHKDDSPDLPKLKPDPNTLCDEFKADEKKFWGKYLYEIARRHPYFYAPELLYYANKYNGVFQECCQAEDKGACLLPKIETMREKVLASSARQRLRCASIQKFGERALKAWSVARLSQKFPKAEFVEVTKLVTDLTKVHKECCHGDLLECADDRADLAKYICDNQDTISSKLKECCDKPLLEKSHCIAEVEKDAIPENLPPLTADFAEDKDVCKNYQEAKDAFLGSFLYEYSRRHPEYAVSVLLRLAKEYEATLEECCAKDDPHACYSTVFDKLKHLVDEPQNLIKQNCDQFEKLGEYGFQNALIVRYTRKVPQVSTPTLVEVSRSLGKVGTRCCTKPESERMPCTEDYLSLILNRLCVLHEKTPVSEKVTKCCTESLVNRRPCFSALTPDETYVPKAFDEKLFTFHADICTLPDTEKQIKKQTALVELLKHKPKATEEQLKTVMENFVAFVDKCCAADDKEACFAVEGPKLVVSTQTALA

B1: scFv-B9 (scFv)
scFv: SDIQMTQSPSSLSASVGDRVTITCRASQGISNYLAWYQQKPGKAPKLLIYAASSLQSGVPSRFSGSRSGTDFTLTISSLQPEDFATYYCQQLYHPPLTFGQGTKVEIKGGGSGGGSGGGSGGGSEVQLVESGGGLVQPGGSLRLSCAASGFTFSSYGMHWVRQAPGKGLEWVAVISYDGSNKYYADSVKGRFTISRDNSKNTLYLQMNSLRAEDTAVYYCARYSPYHYSHSVSYYYYGFDVWGQGTLVTVSS
notes: Synthetic human scFv, order VL (IgKV1-16 framework) - (G3S)4 linker - VH (IgHV3-30 framework); Expressed in E. coli BL-21 and purified by protein L chromatography
In the case of B1, the “Absorbance at O.D. 450 nm” value in assay [1] was 0.075 OD 450 nm. For the same molecule, in assay [2], the Kd came to 9.32 nM, the koff stood at 0.000115 s⁻¹ and the kon is 12400 M⁻¹ s⁻¹. For the same molecule, the “Absorbance at O.D. 450 nm” value in assay [3] was 0.082 OD 450 nm. Further, the “Average fold signal over background” value in assay [4] was found to be 42.1 fold.

B2: biotin-scFv-B9 (scFv)
scFv: SDIQMTQSPSSLSASVGDRVTITCRASQGISNYLAWYQQKPGKAPKLLIYAASSLQSGVPSRFSGSRSGTDFTLTISSLQPEDFATYYCQQLYHPPLTFGQGTKVEIKGGGSGGGSGGGSGGGSEVQLVESGGGLVQPGGSLRLSCAASGFTFSSYGMHWVRQAPGKGLEWVAVISYDGSNKYYADSVKGRFTISRDNSKNTLYLQMNSLRAEDTAVYYCARYSPYHYSHSVSYYYYGFDVWGQGTLVTVSS
modifications: covalently labeled with biotin by N-hydroxysuccinamide amine coupling (EZ-link NHS biotin); labeled residues not stated
notes: held on streptavidin biosensors in the BLI experiments; also called biotin-labeled scFv-B9
In the case of B2, in assay [5], the Kd worked out at 23.1 nM, the koff was determined as 0.00117 s⁻¹ and the kon worked out at 50800 M⁻¹ s⁻¹.

B3: scFv-B7 (scFv)
scFv: SDIQMTQSPSSLSASVGDRVTITCRASQGISNYLAWYQQKPGKAPKLLIYAASSLQSGVPSRFSGSRSGTDFTLTISSLQPEDFATYYCQQVSSWPLTFGQGTKVEIKGGGSGGGSGGGSGGGSEVQLVESGGGLVQPGGSLRLSCAASGFTFSSYGMHWVRQAPGKGLEWVAVISYDGSNKYYADSVKGRFTISRDNSKNTLYLQMNSLRAEDTAVYYCARYPPHGFDYWGQGTLVTVSS
notes: as for B1
As for B3, in assay [1], the “Absorbance at O.D. 450 nm” value was determined as 0.084 OD 450 nm. In assay [2], the Kd is 7.52 nM, the koff was determined as 9.3e-05 s⁻¹ and the kon turned out to be 12400 M⁻¹ s⁻¹. Also, the “Absorbance at O.D. 450 nm” value in assay [3] came to 0.086 OD 450 nm. In addition, in assay [4], the “Average fold signal over background” value was determined as 37 fold.

B4: biotin-scFv-B7 (scFv)
scFv: SDIQMTQSPSSLSASVGDRVTITCRASQGISNYLAWYQQKPGKAPKLLIYAASSLQSGVPSRFSGSRSGTDFTLTISSLQPEDFATYYCQQVSSWPLTFGQGTKVEIKGGGSGGGSGGGSGGGSEVQLVESGGGLVQPGGSLRLSCAASGFTFSSYGMHWVRQAPGKGLEWVAVISYDGSNKYYADSVKGRFTISRDNSKNTLYLQMNSLRAEDTAVYYCARYPPHGFDYWGQGTLVTVSS
modifications: covalently labeled with biotin by N-hydroxysuccinamide amine coupling (EZ-link NHS biotin); labeled residues not stated
notes: held on streptavidin biosensors in the BLI experiments; also called biotin-labeled scFv-B7
Take B4: in assay [5], the Kd amounted to 21 nM, the off-rate (koff) was determined as 0.00109 s⁻¹ and the kon was found to be 51900 M⁻¹ s⁻¹.

B5: scFv-B2 (scFv)
scFv: SDIQMTQSPSSLSASVGDRVTITCRASQGISNYLAWYQQKPGKAPKLLIYAASSLQSGVPSRFSGSRSGTDFTLTISSLQPEDFATYYCQQSYYLPLTFGQGTKVEIKGGGSGGGSGGGSGGGSEVQLVESGGGLVQPGGSLRLSCAASGFTFSSYGMHWVRQAPGKGLEWVAVISYDGSNKYYADSVKGRFTISRDNSKNTLYLQMNSLRAEDTAVYYCARWPAHFSHSHSSYYYYGFDVWGQGTLVTVSS
notes: as for B1
With B5, in assay [1], the “Absorbance at O.D. 450 nm” value amounted to 0.096 OD 450 nm. In addition, in assay [2], the Kd is 14.6 nM, the koff stood at 0.000187 s⁻¹ and the kon is 12800 M⁻¹ s⁻¹. Besides, the “Absorbance at O.D. 450 nm” value in assay [3] amounted to 0.079 OD 450 nm. The “Average fold signal over background” value in assay [6] is more than 45.7 fold.

B6: biotin-scFv-B2 (scFv)
scFv: SDIQMTQSPSSLSASVGDRVTITCRASQGISNYLAWYQQKPGKAPKLLIYAASSLQSGVPSRFSGSRSGTDFTLTISSLQPEDFATYYCQQSYYLPLTFGQGTKVEIKGGGSGGGSGGGSGGGSEVQLVESGGGLVQPGGSLRLSCAASGFTFSSYGMHWVRQAPGKGLEWVAVISYDGSNKYYADSVKGRFTISRDNSKNTLYLQMNSLRAEDTAVYYCARWPAHFSHSHSSYYYYGFDVWGQGTLVTVSS
modifications: covalently labeled with biotin by N-hydroxysuccinamide amine coupling (EZ-link NHS biotin); labeled residues not stated
notes: held on streptavidin biosensors in the BLI experiments; also called biotin-labeled scFv-B2
As for B6, in assay [5], the Kd turned out to be 22 nM, the koff was 0.00103 s⁻¹ and the kon turned out to be 46800 M⁻¹ s⁻¹.
